Data as given in the supplement of paper PMC9112550, “Optimization of the antimicrobial peptide Bac7 by deep mutational scanning” (BMC Biology, 2022).

Each sequence was assayed on Escherichia coli TOP10 (assay: shrunken log2 fold change of peptide-encoding DNA abundance (4.5 h post-induction vs induction); higher = less antimicrobial activity (less host growth inhibition)). Conditions: time post-induction: 4.5 h; library: site-saturation at positions 5, 18, 19, 20.
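Also: peptides expressed intracellularly from a pBAD plasmid library in pooled LB shake-flask culture, induced with 0.3% L-arabinose, DNA abundance read by NGS, three biological replicates, DESeq2 with apeglm shrinkage.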

Row | Sequence | shrunken log2 fold change
1 | RRIRLRPPRLPRPRPRPMGDPRP | 0.0227
2 | RRIRPRPPRLPRPRPRPETIPRP | -0.157
3 | RRIRYRPPRLPRPRPRPTYGPRP | -0.196
4 | RRIRNRPPRLPRPRPRPKELPRP | 0.0238
5 | RRIRTRPPRLPRPRPRPGGGPRP | 0.759
6 | RRIRGRPPRLPRPRPRPECKPRP | 0.841
7 | RRIRRRPPRLPRPRPRPHCRPRP | 0.103
8 | RRIRMRPPRLPRPRPRPYQEPRP | -0.0194
9 | RRIRLRPPRLPRPRPRPYFVPRP | -0.65
10 | RRIRSRPPRLPRPRPRPVGRPRP | 0.65
11 | RRIRPRPPRLPRPRPRPECDPRP | 0.392
12 | RRIRPRPPRLPRPRPRPAHHPRP | 0.207
13 | RRIRARPPRLPRPRPRPSNQPRP | -0.0197
14 | RRIRCRPPRLPRPRPRPAGLPRP | 0.206
15 | RRIRFRPPRLPRPRPRPAPHPRP | 0.442
16 | RRIRTRPPRLPRPRPRPKRKPRP | 0.0722
17 | RRIRARPPRLPRPRPRPSVLPRP | -0.167
18 | RRIRVRPPRLPRPRPRPKDQPRP | 0.0584
19 | RRIRERPPRLPRPRPRPQTYPRP | -1.1
20 | RRIRPRPPRLPRPRPRPLFRPRP | 0.159
21 | RRIRNRPPRLPRPRPRPVLNPRP | -0.261
22 | RRIRNRPPRLPRPRPRPPALPRP | 0.132
23 | RRIRDRPPRLPRPRPRPREVPRP | 0.454
24 | RRIRVRPPRLPRPRPRPFVSPRP | -0.679
25 | RRIRPRPPRLPRPRPRPWRKPRP | 0.0228

Row | Sequence | shrunken log2 fold change
26 | RRIRKRPPRLPRPRPRPTDIPRP | -0.0678
27 | RRIRPRPPRLPRPRPRPDVDPRP | 0.108
28 | RRIRGRPPRLPRPRPRPCAFPRP | 2.03
29 | RRIRCRPPRLPRPRPRPYRQPRP | 0.00128
30 | RRIRMRPPRLPRPRPRPIHHPRP | -0.724
31 | RRIRHRPPRLPRPRPRPGFHPRP | -0.323
32 | RRIRYRPPRLPRPRPRPRIDPRP | -0.174
33 | RRIRLRPPRLPRPRPRPETHPRP | 0.161
34 | RRIRERPPRLPRPRPRPTDAPRP | 0.0786
35 | RRIRMRPPRLPRPRPRPRGQPRP | 1.25
36 | RRIRHRPPRLPRPRPRPSYAPRP | -0.21
37 | RRIRARPPRLPRPRPRPIIYPRP | -0.249
38 | RRIRERPPRLPRPRPRPCLSPRP | 0.0657
39 | RRIRMRPPRLPRPRPRPIALPRP | 0.0271
40 | RRIRMRPPRLPRPRPRPRVMPRP | 0.832
41 | RRIRCRPPRLPRPRPRPTAAPRP | 1.33
42 | RRIRDRPPRLPRPRPRPYQKPRP | 0.0212
43 | RRIRLRPPRLPRPRPRPLYAPRP | -0.389
44 | RRIRLRPPRLPRPRPRPRILPRP | -0.211
45 | RRIRDRPPRLPRPRPRPNWNPRP | -0.1
46 | RRIRPRPPRLPRPRPRPGKSPRP | -0.208
47 | RRIRNRPPRLPRPRPRPHEGPRP | -0.015
48 | RRIRNRPPRLPRPRPRPYVWPRP | -0.135
49 | RRIRGRPPRLPRPRPRPVPAPRP | 1
50 | RRIRIRPPRLPRPRPRPKAEPRP | 0.124

Row | Sequence | shrunken log2 fold change
51 | RRIRCRPPRLPRPRPRPCYEPRP | -0.663
52 | RRIRLRPPRLPRPRPRPAESPRP | 0.197
53 | RRIRYRPPRLPRPRPRPRWMPRP | -0.208
54 | RRIRLRPPRLPRPRPRPTNVPRP | -0.165
55 | RRIRERPPRLPRPRPRPKLEPRP | -0.0117
56 | RRIRPRPPRLPRPRPRPGRQPRP | 0.742
57 | RRIRHRPPRLPRPRPRPVRDPRP | 0.298
58 | RRIRARPPRLPRPRPRPDLPPRP | 0.311
59 | RRIRPRPPRLPRPRPRPDPHPRP | 0.0782
60 | RRIRERPPRLPRPRPRPCLMPRP | -0.0535
61 | RRIRCRPPRLPRPRPRPSMEPRP | -0.344
62 | RRIRQRPPRLPRPRPRPCKDPRP | -0.294
63 | RRIRNRPPRLPRPRPRPVGKPRP | 0.028
64 | RRIRARPPRLPRPRPRPLQIPRP | 0.0194
65 | RRIRKRPPRLPRPRPRPELGPRP | 0.823
66 | RRIRNRPPRLPRPRPRPRRMPRP | 0.207
67 | RRIRMRPPRLPRPRPRPRFVPRP | 0.236
68 | RRIRMRPPRLPRPRPRPTNGPRP | -0.0328
69 | RRIRFRPPRLPRPRPRPQWGPRP | -0.139
70 | RRIRSRPPRLPRPRPRPEFAPRP | 0.413
71 | RRIRDRPPRLPRPRPRPPAFPRP | 0.192
72 | RRIRMRPPRLPRPRPRPDFVPRP | 0.00674
73 | RRIRERPPRLPRPRPRPLVNPRP | -0.456
74 | RRIRMRPPRLPRPRPRPQSTPRP | 0.21
75 | RRIRWRPPRLPRPRPRPPLSPRP | 0.271

Row | Sequence | shrunken log2 fold change
76 | RRIRERPPRLPRPRPRPRIRPRP | 0.0747
77 | RRIRTRPPRLPRPRPRPWRCPRP | -0.00386
78 | RRIRWRPPRLPRPRPRPNRSPRP | -0.0777
79 | RRIRMRPPRLPRPRPRPPHYPRP | 0.728
80 | RRIRARPPRLPRPRPRPYHFPRP | -0.186
81 | RRIRARPPRLPRPRPRPWHGPRP | 0.0697
82 | RRIRVRPPRLPRPRPRPIANPRP | 0.0572
83 | RRIRWRPPRLPRPRPRPMYWPRP | 0.0085
84 | RRIRMRPPRLPRPRPRPRRYPRP | 1.15
85 | RRIRFRPPRLPRPRPRPHWNPRP | -0.653
86 | RRIRDRPPRLPRPRPRPYEPPRP | -0.017
87 | RRIRTRPPRLPRPRPRPFMDPRP | 0.108
88 | RRIRIRPPRLPRPRPRPLHFPRP | -0.511
89 | RRIRRRPPRLPRPRPRPNLMPRP | 0.85
90 | RRIRIRPPRLPRPRPRPYPPPRP | -0.818
91 | RRIRVRPPRLPRPRPRPNHEPRP | -0.547
92 | RRIRARPPRLPRPRPRPNGKPRP | 0.3
93 | RRIRCRPPRLPRPRPRPRCWPRP | 0.502
94 | RRIRMRPPRLPRPRPRPKKIPRP | 0.599
95 | RRIRIRPPRLPRPRPRPFDPPRP | -0.438
96 | RRIRSRPPRLPRPRPRPQLNPRP | -0.248
97 | RRIRVRPPRLPRPRPRPGPRPRP | 0.791
98 | RRIRERPPRLPRPRPRPCVFPRP | 0.0387
99 | RRIRCRPPRLPRPRPRPGPAPRP | 0.543
100 | RRIRERPPRLPRPRPRPKITPRP | -0.514

Row | Sequence | shrunken log2 fold change
101 | RRIRQRPPRLPRPRPRPVCMPRP | -0.0787
102 | RRIRVRPPRLPRPRPRPWTPPRP | 0.158
103 | RRIRMRPPRLPRPRPRPWCYPRP | -0.162
104 | RRIRWRPPRLPRPRPRPRMLPRP | 0.281
105 | RRIRQRPPRLPRPRPRPSQGPRP | 4.77e-05
106 | RRIRERPPRLPRPRPRPFQYPRP | -0.64
107 | RRIRGRPPRLPRPRPRPHDIPRP | 0.0295
108 | RRIRARPPRLPRPRPRPFAIPRP | -0.239
109 | RRIRWRPPRLPRPRPRPCTGPRP | -0.0547
110 | RRIRYRPPRLPRPRPRPCQHPRP | -0.253
111 | RRIRSRPPRLPRPRPRPPNCPRP | 0.231
112 | RRIRIRPPRLPRPRPRPKHIPRP | -0.765
113 | RRIRMRPPRLPRPRPRPHFYPRP | -0.115
114 | RRIRARPPRLPRPRPRPECWPRP | 1.97
115 | RRIRTRPPRLPRPRPRPMNVPRP | 0.0707
116 | RRIRYRPPRLPRPRPRPIFKPRP | -0.133
117 | RRIRHRPPRLPRPRPRPFVIPRP | -0.331
118 | RRIRKRPPRLPRPRPRPTWIPRP | 0.00938
119 | RRIRNRPPRLPRPRPRPKTGPRP | -0.0778
120 | RRIRSRPPRLPRPRPRPFGVPRP | -0.448
121 | RRIRNRPPRLPRPRPRPPSKPRP | -0.161
122 | RRIRCRPPRLPRPRPRPGMGPRP | 0.223
123 | RRIRHRPPRLPRPRPRPCVDPRP | -0.184
124 | RRIRWRPPRLPRPRPRPVSQPRP | 0.139
125 | RRIRGRPPRLPRPRPRPSEKPRP | 1.49

Row | Sequence | shrunken log2 fold change
126 | RRIRCRPPRLPRPRPRPKIAPRP | 0.0102
127 | RRIRDRPPRLPRPRPRPMINPRP | 0.0491
128 | RRIRHRPPRLPRPRPRPMDLPRP | 0.00707
129 | RRIRCRPPRLPRPRPRPHPDPRP | -0.0728
130 | RRIRNRPPRLPRPRPRPEDNPRP | 0.0315
131 | RRIRWRPPRLPRPRPRPSCCPRP | 0.174
132 | RRIRYRPPRLPRPRPRPQYRPRP | -0.148
133 | RRIRARPPRLPRPRPRPKVMPRP | 0.176
134 | RRIRPRPPRLPRPRPRPNQTPRP | 0.106
135 | RRIRSRPPRLPRPRPRPRCLPRP | 0.0297
136 | RRIRSRPPRLPRPRPRPNLLPRP | -0.0918
137 | RRIRRRPPRLPRPRPRPQEKPRP | 0.0332
138 | RRIRTRPPRLPRPRPRPNREPRP | 0.115
139 | RRIRGRPPRLPRPRPRPYIGPRP | 0.018
140 | RRIRIRPPRLPRPRPRPVHQPRP | -0.398
141 | RRIRERPPRLPRPRPRPKYEPRP | -0.303
142 | RRIRQRPPRLPRPRPRPRWGPRP | 0.447
143 | RRIRFRPPRLPRPRPRPAQEPRP | 0.351
144 | RRIRNRPPRLPRPRPRPCCKPRP | -0.274
145 | RRIRIRPPRLPRPRPRPQQKPRP | 0.0242
146 | RRIRMRPPRLPRPRPRPFNHPRP | -0.367
147 | RRIRWRPPRLPRPRPRPRHHPRP | -0.0574
148 | RRIRSRPPRLPRPRPRPARAPRP | 0.985
149 | RRIRHRPPRLPRPRPRPHPVPRP | -0.248
150 | RRIRHRPPRLPRPRPRPSKVPRP | -0.146
